Experimental data: PMC7979749, “Structural basis of the dynamic human CEACAM1 monomer-dimer equilibrium” (Communications Biology, 2021)
Positions count from the first letter of the chain named. In names and notes the source's numbering stands. Each block holds one molecule with its values, some of them ahead of it.

What was measured:
TIM-3 IgV (Homo sapiens) = TIM-3 IgV (Homo sapiens) (UniProt Q8TDQ0); conditions: cited from earlier work
[1] = biological target: CEACAM1 IgV (Homo sapiens) (UniProt P13688); conditions: cited from earlier work
[2] = biological target: human CEACAM1 IgV domain, N97A mutant (human) (UniProt P13688); assay: NMR titration; 15N-HSQC spectra at varying protein concentration (N97A 16-500 μM; WT 10 μM and 1 mM); 10 mM HEPES, 50 mM NaCl, pH 7.0, 25 °C; dimer to monomers; rough estimate from peak trajectories of Q44 and A49
[3] = biological target: the molecule itself; assay: SEC-MALS; samples at 100 μM injected onto TSK-gel Bioassist G4SWxl, 10 mM HEPES pH 7.4, 150 mM, 0.5 mL/min; self-association, monomer to dimer
[4] = biological target: the molecule itself; assay: crystal structure; mutant proteins concentrated to 10 mg/ml (exceeding 800 μM); molecular replacement with PDB 4QXW; self-association in the asymmetric unit

Chain of TIM-3 IgV (Homo sapiens) (Q8TDQ0 22-124): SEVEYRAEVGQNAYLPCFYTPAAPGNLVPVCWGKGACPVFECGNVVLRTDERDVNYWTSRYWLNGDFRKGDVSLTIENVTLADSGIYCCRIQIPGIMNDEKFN

Molecule: CEACAM1 IgV (from UniProt P13688)
Kd (TIM-3 IgV (Homo sapiens)): 2.5 µM | Kd [1]: 0.45 µM

Kd [2]: > 1000 µM
Molecule: human CEACAM1 IgV domain, N97A mutant (from UniProt P13688 35-141) (domain or fragment)

B1: human CEACAM1 IgV domain, wildtype (domain or fragment)
chain: AQLTTESMPFNVAEGKEVLLLVHNLPQQLFGYSWYKGERVDGNRQIVGYAIGTQQATPGPANSGRETIYPNASLLIQNVTQNDTGFYTLQVIKSDLVNEEATGQFHVY
notes: Carcinoembryonic antigen-related cell adhesion molecule 1 (CEACAM1), human, N-terminal IgV domain; NMR samples were 15N/13C or 15N/13C/2H labelled; also called hCEACAM1 WT IgV; WT; source: isotope-labelled samples expressed from E. coli in M9 minimal medium, purified
stoichiometry N [3]: 2

B2: human CEACAM1 IgV domain, V39A mutant (domain or fragment)
chain: QLTTESMPFNVAEGKEVLLLVHNLPQQLFGYSWYKGERADGNRQIVGYAIGTQQATPGPANSGRETIYPNASLLIQNVTQNDTGFYTLQVIKSDLVNEEATGQFHVY
notes: unglycosylated; also called hCEACAM1 V39A
binding result [3]: binds

B3: human CEACAM1 IgV domain, I91A mutant (domain or fragment)
chain: B2 chain with A39V, I91A
notes: unglycosylated
binding result [4]: binds
